From patent US20250250361A1, “ANTI-PLA2G10 ANTIBODIES AND METHODS OF USE” (Yale University, priority 2022, published 2025) come the findings set out here.

“Also recorded” adds a separate entry of the source.

Experiment [1] has as its system T cell migration inhibited by PLA2G10. Nature of the experiment: high throughput T cell mobility assay (TCMA). Type of experiment: cell-based. Conditions: activated primary human T cells from 3 donors, CXCL11 100 ng/ml. As to the method:
A high throughput T cell mobility assay (TCMA) was performed to assess the ability of the antibody clones identified in Example 1 and varespladib (a small molecule PLA2G10 inhibitor) to attenuate the inhibitory effect of PLA2G10 on T cell migration. The TCMA was built by modifying Boyden's two-chamber assay in a 96-well format, in which two chambers were separated by a porous membrane. While activated T cells on the upper chamber are largely held by the membrane, exposure to chemokines allows T cells to transpass the membrane and migrate into the lower chamber. In the assay, HEK293T cells 5×10^4 were seeded in a reservoir plate (the lower chambers) arrayed with human secretory molecule encoding genes and transiently transfected using jetPRIME® transfection reagent (Polyplus transfection) as described previously (Yao et al., (2011) Immunity 34:729-740). After overnight incubation, the culture supernatant was replaced by a fresh migration medium (RPMI-1640 containing 1% fetal calf serum from Atlanta Biologicals) and further cultured for 2-3 days. […] At the end of incubation, the upper chamber was removed, and cells in the lower chambers were collected and stained with AF647-labeled anti-human CD45 mAb (clone 2D1, Biolegend) and numerated by the Mirrorball® plate reader (TPP Labtech). […]

The target of experiment [2] is T1, recombinant human PLA2G10 protein (Origene) (human, UniProt O15496 43-165, limits assumed).
T1 construct: also called rhPLA2G10; hPLA2G10
T1 sequence (looked up): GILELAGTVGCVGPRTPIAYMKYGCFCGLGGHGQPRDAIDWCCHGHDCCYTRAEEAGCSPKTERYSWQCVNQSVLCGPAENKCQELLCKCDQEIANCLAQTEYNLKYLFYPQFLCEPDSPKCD
Nature of the experiment: one-way ELISA, plates coated with human PLA2G10 (Origene). The protocol: (§1) A one-way ELISA was performed to assess antibody binding to PLA2G10. Plates were coated with either human PLA2G10 (Origene) or mouse PLA2G10 (NP285) at 0.5 mg/ml and tested using a PLA2G10 ELISA kit (Elabscience, China) per the manufacturer's instructions. Testing results were normalized as (Vt−Vm)/Vm, where Vt indicates the value calculated according to the standard curve and Vm indicates the mean value of all samples tested on the same ELISA plate.

For experiment [3], the system named is mouse PLA2G10 (mPLA2G10-IgFc). Put plainly: sPLA2 assay kit, phospholipase enzymatic activity of mouse PLA2G10. The class given is biochemical. To be noted: mPLA2G10-IgFc 0.32 mg/ml, antibody 1 mg/ml, 37° C. 45 minutes preincubation. The protocol: (§2) The PLA2G10 enzymatic activity for hydrolysis of phospholipids was tested using a sPLA2 assay kit (Cayman Chemical, MI) according to manufacturer's instructions. Briefly, the 1,2-dithio analog of diheptanoyl phosphatidylcholine serves as a substrate for sPLA2s. Upon hydrolysis of the thioester bond at the sn-2 position by PLA2G10, free thiols are detected using DTNB (5,5′-dithio-bis-(2-nitrobenzoic acid)). Recombinant human PLA2G10 protein (rhPLA2G10) (0.5 μg, 2.5 μg/ml final concentration) was incubated with 1C11 antibody (5 μg, 25 μg/ml final concentration) at RT for 30 minutes before testing. Mouse PLA2G10 protein (mPLA2G10-IgFc) (0.32 mg/ml) was incubated with 1C11 or 2B12 antibody (1 mg/ml) at 37° C. for 45 minutes before testing.

The target of experiment [4] is T2, recombinant human PLA2G10 (rhPLA2G10) (Homo sapiens, UniProt O15496).
T2 sequence (O15496 43-165): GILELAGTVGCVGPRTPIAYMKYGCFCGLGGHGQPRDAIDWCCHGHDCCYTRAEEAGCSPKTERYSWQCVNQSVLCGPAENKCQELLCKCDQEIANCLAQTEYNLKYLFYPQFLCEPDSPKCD
Put plainly: sPLA2 assay kit, phospholipase enzymatic activity of human PLA2G10. The class given is biochemical. To be noted: rhPLA2G10 2.5 μg/ml, antibody 25 μg/ml, RT 30 minutes preincubation. As to the method: as §2

A further experiment concerns MC38-2G10 tumors. Nature of the experiment: MC38-2G10 syngeneic tumor model. The class given is in vivo. Conditions: established tumors in mice, antibodies at 6, 11 and 16 days after inoculation. As to the method:
FIG. 4 is a graph showing MC38-2G10 tumor growth in mice over time with anti-PLA2G10 antibody 1C11, anti-PD-1 antibody G4, or combined treatment. Mice were treated with antibodies at 6, 11, and 16 days after tumor inoculation. Representative results of two independent experiments are shown as the mean±SEM. Data were analyzed by two-way ANOVA. * p<0.05, ns=not significant.
To investigate the in vivo effects of anti-PLA2G10 antibody 1C11, a tumor cell line, MC38-2G10, was established by lentivirus-mediated gene transduction to stably express murine PLA2G10 homolog.

Another experiment has as its system KPC-2G10 tumors. Nature of the experiment: KPC-2G10 syngeneic tumor model. The class given is in vivo, mice. As to the method:
FIG. 5A is a graph showing KPC-2G10 tumor growth in mice over time with anti-PLA2G10 antibody 1C11, anti-PD-1 antibody G4, or combined treatment. Mice were treated with antibodies at 5, 10, and 15 days (+20-day treatment for 1C11) after tumor inoculation. Representative results of two independent experiments are shown as the mean±SEM. Data were analyzed by one-way ANOVA. FIG. 5B is a graph showing quantification of CD3+T cells by immunohistochemistry staining with an anti-CD3 mAb in the KPC-2G10 tumors with or without 1C11 treatment. Cell numbers of five hpfs were randomly picked in each sample for counting and average cell counts were plotted. Box whisker plots depict the mean, the minimum to the maximum value, and each data point was shown. Data were analyzed by the Mann-Whitney test. * p<0.05.
Similar results were also obtained in another syngeneic mouse model using the KPC pancreatic cancer subline, which has moderate TILs when growing subcutaneously (Sun et al., 2021, Sci Transl Med 4, 127ral37) (FIG. 5A).

The target in a further experiment is T3, mouse PLA2G10 (Mus musculus, UniProt Q9QXX3).
T3 construct: NP285
T3 sequence (Q9QXX3 29-151): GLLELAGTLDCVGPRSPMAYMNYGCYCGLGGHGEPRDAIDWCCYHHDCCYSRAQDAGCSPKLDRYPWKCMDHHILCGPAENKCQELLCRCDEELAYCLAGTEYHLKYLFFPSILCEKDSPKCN
Put plainly: one-way ELISA, antibody binding to mouse PLA2G10. To be noted: plates coated with mouse PLA2G10. The protocol:
as §1

In a further experiment the test system is HT-29 tumors. Nature of the experiment: HT-29 xenograft tumor model in NSG mice. Conditions: compared to control. Type of experiment: in vivo. As to the method:
FIG. 6A is a graph showing HT29 xenograft tumor growth over time with anti-PLA2G10 antibody 1C11 or control treatment. Data were analyzed by one-way ANOVA. * p<0.01. FIG. 6B is a series of pictures showing 1C11 or control antibody treated tumors at day 37. Tumors were surgically removed, formalin-fixed, and sectioned. Tumor tissue sections were studied by immunohistochemistry using an anti-human CD3 mAb. FIG. 6C is a graph showing quantification of CD3+ T cells in control antibody or 1C11 treated tumors (hpf, high power field x400). Cell numbers of ten […] hpfs were randomly picked in each sample for counting and average cell counts were plotted. Box whisker plots depict the mean, the minimum to the maximum value, and each data point was shown. Data were analyzed by the Mann-Whitney test. * p<0.05.
The human colon adenocarcinoma cell line HT-29 secretes PLA2G10 and forms tumors when inoculated in immunodeficient NSG (NOD scid gamma) mice subcutaneously.

For a further experiment, the target named is T4, human PLA2G10 (Homo sapiens, UniProt O15496).
T4 construct: purchased Origene
T4 sequence (O15496 43-165): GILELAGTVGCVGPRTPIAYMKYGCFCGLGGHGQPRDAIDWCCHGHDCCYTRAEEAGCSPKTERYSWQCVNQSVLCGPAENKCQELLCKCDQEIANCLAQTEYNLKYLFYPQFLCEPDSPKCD
Nature of the experiment: one-way ELISA, antibody binding to human PLA2G10. Conditions: plates coated with human PLA2G10. The protocol:
as §1

Where [5] appears, read: CD3+ T cells by immunohistochemistry.

As to `CCc1c(C(=O)C(N)=O)c2c(OCC(=O)O)cccc2n1Cc1ccccc1` [varespladib, reference compound], in experiment [1], the “reversal of T cell migration inhibited by PLA2G10” value was “reversed”.

B1: anti-PLA2G10 antibody 1C11 (mouse IgG2a) (antibody, V domains shown)
VH: QVTLKESGPGILHPSQTLSLTCSFSGFSLNTFGLGVGWVRQPSGKGQEWLAHIWWDDDRYYNPPLKSRLTISKDPSKNQVFLTIPNVNTANTATYYCTQILPHWVAYWGQGTTLTVSS
VL: DIQMNQSPSSLSASLGDTITISCHASQNINVWLSWYQQKPGNIPKLLIYKASNLHTGVPSRFSGSGSGTGFTFTISSLQPEDIATYFCQQGQSYPFTFGGGTKLELK
notes: also called 1C11 antibody; anti-PLA2G10 mAb IC11
Take B1: the binding result in experiment [2] is on record as “binds”.

B2: 1C11: anti-PLA2G10 antibody clone, VH SEQ ID NO: 1, VL SEQ ID NO: 2; binds human and mouse PLA2G10 (antibody, V domains shown)
VH: QVTLKESGPGILHPSQTLSLTCSFSGFSLNTFGLGVGWVRQPSGKGQEWLAHIWWDDDRYYNPPLKSRLTISKDPSKNQVFLTIPNVNTANTATYYCTQILPHWVAYWGQGTTLTVSS
VL: DIQMNQSPSSLSASLGDTITISCHASQNINVWLSWYQQKPGNIPKLLIYKASNLHTGVPSRFSGSGSGTGFTFTISSLQPEDIATYFCQQGQSYPFTFGGGTKLELK
Consider B2, for which the “inhibition of phospholipase enzymatic activity of mouse PLA2G10” value in [3] is reported as “inhibited”. Also, the “reversal of T cell migration inhibited by PLA2G10” value in experiment [1] is listed as “reversed”. In addition, in experiment [4], the “inhibition of phospholipase enzymatic activity of human PLA2G10” value is “inhibited”. Further, the MC38-2G10 tumor growth entry in the experiment on MC38-2G10 tumors was “did not induce the regression”. In addition, in the experiment on KPC-2G10 tumors (setting [5]), the “T cell infiltration in KPC-2G10 tumors” value is given as “promoted T cell infiltration”. In addition, the KPC-2G10 tumor growth result in the experiment with KPC-2G10 tumors (syngeneic mice, subcutaneous, antibodies at 5, 10, 15 days) is “responded partially”. Also, the “binding to mouse PLA2G10 protein” value with mouse PLA2G10 is “recognized; also recorded: showed binding”. For the same molecule, the “T cell infiltration in HT-29 tumors” value in the experiment with HT-29 tumors (setting [5]) is reported as “promoted T cell infiltration”. In addition, the “HT-29 xenograft tumor growth” value in the experiment with HT-29 tumors (subcutaneous) is listed as “retarded tumor growth”. Further, in the experiment with human PLA2G10, the “binding to human PLA2G10 protein” value is “recognized; also recorded: showed binding”.
